Values quoted from earlier work in PMC7369927.
Like-named read-outs stand apart in the source and are kept apart here.

Assays:
AT1 receptor [1] = target: AT1 receptor (UniProt P30556)
AT1 receptor [2] = target: AT1 receptor (UniProt P30556); remark: listed apart in the source

Sequence of UniProt P30556 (P30556 whole entry): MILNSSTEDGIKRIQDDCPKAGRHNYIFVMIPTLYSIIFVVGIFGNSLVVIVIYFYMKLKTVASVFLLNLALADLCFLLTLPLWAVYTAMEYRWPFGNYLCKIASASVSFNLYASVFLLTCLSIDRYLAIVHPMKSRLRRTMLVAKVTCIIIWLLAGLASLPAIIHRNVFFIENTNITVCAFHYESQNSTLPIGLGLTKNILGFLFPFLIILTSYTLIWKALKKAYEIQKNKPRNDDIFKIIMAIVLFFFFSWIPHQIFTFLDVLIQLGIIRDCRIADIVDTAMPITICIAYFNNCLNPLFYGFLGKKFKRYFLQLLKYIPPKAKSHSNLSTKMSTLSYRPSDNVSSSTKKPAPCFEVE

Kd (AT1 receptor [1]) [nM] | Kd (AT1 receptor [2]) [nM] | Substance
2 | – | Ang II (from UniProt P01019)
– | 200 | Ang-(1-7) (from UniProt P01019)
